Variants at the floor of the assay were thinned out.
B1: TPR 5TU (parent)
chain: GGAUCUUCUCGAUCUAACAAAAAAGACAAAUCUGCCACAAAGCUUGAGAGCAUCUUCGGAUGCAGAGGCGGCAGCCUUCGGUGGCGCGAUAGCGCCAACGUUCUCAACUAUGACACGCAAAACGCGUGCUCCGUUGAAUGGAGUUUAUCAUG

Variants of: B1
Experiment: polymerase ribozyme fitness, log enrichment relative to wild type (log ratio); higher = more active; in vitro selection for triplet polymerase activity
Outline: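 Frozen incubation at −7 °C formed the core of a single, triplicate in vitro selection round applied to PCR-built, transcribed mutant libraries of each subunit of a heterodimeric triplet polymerase ribozyme. Extended constructs were gel-excised, captured with streptavidin beads and amplified by RT-PCR, and input and output libraries were Illumina-sequenced with a filter of ≥10 input reads and ≥1 read per output. Fitness is the logarithm of genotype enrichment relative to wild-type enrichment, with inverse-variance-weighted replicate averaging, and the logarithm is base 2.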

Row | Variant | polymerase ribozyme fitness (log ratio)
1 | C10A G48C G59A C103G U104A C105U A113C U146A | ≤ -4.2
2 | A12C U53A C87U | -2
3 | C10G A16G U53A U55A G65A G92A A98U G126A A138U U148G | -4.12
4 | U9G A22G U31G A41G A91U C93U U135G | ≤ -4.2
5 | C10A A20U A21C A49C C51U C79U A110G | ≤ -4.2
6 | C10G U53A C54A G80C G84A C96G U104C C108U U145G | ≤ -4.2
7 | C10U A12U A21C A39U G71A A106C C125G G141A | ≤ -4.2
8 | G11A C96G | -1.49
9 | G11C A19C G70U G86A A89U A106G G136C | ≤ -4.2
10 | C10U A30U U33G C51A A64C A91G C118U U145C | ≤ -4.2
11 | U9G G65A G81U C95U | ≤ -4.2
12 | C10U A89U C95U | -4.15
13 | C10G C57A C108A A115G U134A G136U | ≤ -4.2
14 | A12C G58A A66C G88U A110U | ≤ -4.2
15 | U9G U53G C87U A113U C116A G140U | ≤ -4.2
16 | C10U C32U C35U A49C C51A C87A G141A | ≤ -4.2
17 | U9G A16U C32A C85G U135C G152U | ≤ -4.2
18 | C10U A52G G67U C69A | ≤ -4.2
19 | C10U A16U C18U G71C C108G | ≤ -4.2
20 | G11C A30G U53A G58A C95A | ≤ -4.2
21 | G11U A97G C103A U146A | -4.09

Row | Variant | polymerase ribozyme fitness (log ratio)
22 | C10U U13C A52U C96A | -3.64
23 | A12C A21C C35A G58U U135G | -4.1
24 | U9G G86U A97U C108G | ≤ -4.2
25 | C10U U15G G58U A73G G83A A91C C95U U134C | ≤ -4.2
26 | A12C A29C G81U C87A | ≤ -4.2
27 | G11C C54U G62A A121U | -2.2
28 | C10G A26U A107U A115U C129A U148G | ≤ -4.2
29 | C10A A24C C51U G141U | ≤ -4.2
30 | G11C C38U G65U A122U | ≤ -4.2
31 | C10U G48A G86A G88A C95A | ≤ -4.2
32 | U9C U33C C87A A122C | ≤ -4.2
33 | G11A C96U C116U | -1.68
34 | C10U A20U U44A C79U C87A | ≤ -4.2
35 | C10A C32G U139G | ≤ -4.2
36 | C10U C125U | -3.3
37 | A12C A29G C93U U104A U134A | ≤ -4.2
38 | G11C G59A A60C | -3.14
39 | C10G C43G U55A G83A G92C C125A | ≤ -4.2
40 | G11A A20U C54A C87G G100C U145A | ≤ -4.2
41 | G11C A26G C93A A120U G126C | -3.54
42 | C10G C38U C95A | ≤ -4.2

Row | Variant | polymerase ribozyme fitness (log ratio)
43 | C10U U33A A49G C76U G81A A98G U102C A137C G140U | ≤ -4.2
44 | U9G C38U U44C G46A U56A C79G C96A A142G | ≤ -4.2
45 | C10U A23G U82G C95A | ≤ -4.2
46 | U9G A24U C35U A60C G71A G128A G143U A150G | ≤ -4.2
47 | G11C C93U U101G G128U | -3.85
48 | G11C C93A C125U | ≤ -4.2
49 | C10G A98G | -4
50 | C10U A21U C54A U55A C95U U102G A106C G141C | ≤ -4.2
51 | C10A A17C C35U G59A A122U U146A | ≤ -4.2
52 | G11C C32G C54U C57U C79G C87G A110G | ≤ -4.2
53 | U9G U33G G34U G92A C105G C132U U139C | ≤ -4.2
54 | G11U C14G U127G | ≤ -4.2
55 | C10U G143U | -3.61
56 | C10G U82C G94U U102C A107C A138U | ≤ -4.2
57 | C10G A49G G59A A60U G88U A97U | ≤ -4.2
58 | C10G A19U C32A C93U U127A | ≤ -4.2
59 | G11A A17C A20C A22U G46U C85U | -3.03
60 | C10U G59C C85A C116G A138C | ≤ -4.2
61 | C10G G86A | -3.52
62 | C10G A12G G84A U109G G141A | ≤ -4.2
63 | G11C U33A U44C C76A A89U C95U A122C C123U G133A | ≤ -4.2

Row | Variant | polymerase ribozyme fitness (log ratio)
64 | G11U A16G C36A A49C C95G C118U G133U | ≤ -4.2
65 | A12C U145C | 0.192
66 | C10G G11U A28C A37G G46U G88U C96U U102G C105U | ≤ -4.2
67 | C10G U55A C57A U77G C87G | ≤ -4.2
68 | G11U | -0.242
69 | G11C | -1.36
70 | G11A | -0.693
71 | C10A C14G U53A C57A G84A C99U G126A | ≤ -4.2
72 | A12C A19C G58C G62A C63U A97G | ≤ -4.2
73 | A12C U15C C35U G58A U90C G126U | ≤ -4.2
74 | C10U G42A A49U A64G G71A U139C | ≤ -4.2
75 | U9G C27G A28G A41C C57U U82G G92C G140U | ≤ -4.2
76 | G11C A122G | -2.55
77 | U9G U90C U148G | ≤ -4.2
78 | C10A A66C C85U A98G A121C | ≤ -4.2
79 | A12C C93U A120G | -0.829
80 | U9G A23U A26G A28G U61A G80A A120U G141U | ≤ -4.2
81 | G11A A20C A21U A52G U55C G94C C116U | -4.05
82 | G11A A26C U33G C129A | ≤ -4.2
83 | C10U G25C G46C G88U C95U A97U A142C | ≤ -4.2

From the RNAGym collection of RNA variant scans (doi:10.1073/pnas.2313332121)
